According to patent US20060073508A1 (published 2006):

Molecular target: GRK2 (βARK1)
Test: cell-based or functional assay

B1: hemagglutinin epitope-tagged Del301-303 human alpha-2B adrenergic receptor (receptor)
chain: YPYDVPDYAMDHQDPYSVQATAAIAAAITFLILFTIFGNALVILAVLTSRSLRAPQNLFLVSLAAADILVATLIIPFSLANELLGYWYFRRTWCEVYLALDVLFCTSSIVHLCAISLDRYWAVSRALEYNSKRTPRRIKCIILTVWLIAAVISLPPLIYKGDQGPQPRGRPQCKLNQEAWYILASSIGSFFAPCLIMILVYLRIYLIAKRSNRRGPRAKGGPGQGESKQPRPDHGGALASAKLPALASVASAREVNGHSKSTGEKEEGETPEDTGTRALPPSWAALPNSGQGQKEGVCGASPEDEAEEEEEEEEECEPQAVPVSPASACSPPLQQPQGSRVLATLRGQVLLGRGVGAIGGQWWRRRAQLTREKRFTFVLAVVIGVFVLCWFPFFFSYSLGAICPKHCKVPHGLFQFFFWIGYCNSSLNPVIYTIFNQDFRRAFRRILCRPWTQTAW
- agonist-promoted whole cell phosphorylation of the receptor (10 µM norepinephrine): 3.28 fold increase
